Data published in publication PMC10844294.

Molecular target: 17T2 mAb de-glycosylated with PNGase F (human)
Test: SPR

Chain of 17T2 mAb de-glycosylated with PNGase F (human) (heavy, as listed by the source, chain 1 of 2): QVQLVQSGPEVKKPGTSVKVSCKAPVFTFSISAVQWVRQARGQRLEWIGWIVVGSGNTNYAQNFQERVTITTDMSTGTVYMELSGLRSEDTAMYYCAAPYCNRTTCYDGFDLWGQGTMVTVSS
Chain of 17T2 mAb de-glycosylated with PNGase F (human) (light, as listed by the source, chain 2 of 2): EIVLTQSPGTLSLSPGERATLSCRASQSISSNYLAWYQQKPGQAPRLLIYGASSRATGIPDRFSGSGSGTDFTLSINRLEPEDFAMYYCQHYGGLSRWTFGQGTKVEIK

Work on “SARS-CoV-2 spike receptor binding domain, ancestral WH1 (from UniProt P0DTC2 319-541) (domain or fragment)” yielded a Kd of 0.0749 nM, a koff of 0.00013 s⁻¹ and a kon of 1.74e+06 M⁻¹ s⁻¹.
